Data as given in paper PMC8144298.

Target: CsrA-3xFLAG (Escherichia coli) (UniProt P69913)
Experiment: competition
Conditions: competitor conc. that fully displaces labeled RrBshort (120 pM) from 200 nM CsrA; CsrA EMSA: 100 mM KCl, 10 mM MgCl2, 2 mM DTT, 7.5% glycerol, 2 ng total yeast RNA, 120 pM RNA, 10 min 37 C, 8% native PAGE in 1x TBE (pH not stated); Hfq EMSA: …

CsrA-3xFLAG (Escherichia coli), sequence (P69913 whole entry): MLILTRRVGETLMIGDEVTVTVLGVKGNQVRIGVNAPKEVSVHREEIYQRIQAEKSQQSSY

Substance: CsrB
- binding signal: 3.13 nM
